According to FireProtDB (doi:10.1021/bi980431i):
Several values for one entry are separate records, joined by “and”; a condition that tells them apart may be missing. Equal values may be shown once.

B1: Lysozyme C, P61626 (parent)
chain: MKALIVLGLVLLSVTVQGKVFERCELARTLKRLGMDGYRGISLANWMCLAKWESGYNTRATNYNAGDRSTDYGIFQINSRYWCNDGKTPGAVNACHLSCSALLQDNIADAVACAKRVVRDPQGIRAWVAWRNRCQNRDVRQYVQGCGV

Variants of: B1
Settings: Homo sapiens; pH 2.48; Thermal; DSC; glycine 0.05 M; reversible: yes; structure 1LZ1; whole UniProt chain shown
With Y63F the Tm was 61.4 °C, the “heat capacity change of unfolding” value was 0.89 kcal/mol/K and the “unfolding enthalpy (calorimetric)” value was 109 kcal/mol. For the same variant, the “unfolding enthalpy (van 't Hoff)” value was 115 kcal/mol.

Same assay, conditions: Homo sapiens; pH 2.67; Thermal; DSC; glycine 0.05 M; reversible: yes; structure 1LZ1; whole UniProt chain shown
In the case of Y63F, the Tm is reported as 64.6 °C, the “heat capacity change of unfolding” value is reported as 1.34 kcal/mol/K and the “unfolding enthalpy (calorimetric)” value is reported as 112 kcal/mol. For the same variant, the “unfolding enthalpy (van 't Hoff)” value was 117 kcal/mol.

Same assay, conditions: Homo sapiens; pH 2.7; 64.9 °C; Thermal; DSC; glycine 0.05 M; reversible: yes; structure 1LZ1; whole UniProt chain shown
With Y63F the “ddG of mutation (higher = less stable)” value was -0.07 kcal/mol and the “heat capacity change of unfolding” value was 1.1 kcal/mol/K. With Y72F the “ddG of mutation (higher = less stable)” value was 0.96 kcal/mol and the “heat capacity change of unfolding” value was 1.67 kcal/mol/K. With Y38F the “ddG of mutation (higher = less stable)” value was 0.5 kcal/mol and the “heat capacity change of unfolding” value was 1.35 kcal/mol/K. With Y142F the “ddG of mutation (higher = less stable)” value was 0.36 kcal/mol and the “heat capacity change of unfolding” value was 1.46 kcal/mol/K. With Y56F the “ddG of mutation (higher = less stable)” value was 0.19 kcal/mol and the “heat capacity change of unfolding” value was 1.29 kcal/mol/K. With Y81F the “ddG of mutation (higher = less stable)” value was 0.24 kcal/mol and the “heat capacity change of unfolding” value was 1.53 kcal/mol/K.

Same assay, conditions: Homo sapiens; pH 2.7; Thermal; DSC; glycine 0.05 M; reversible: yes; structure 1LZ1; whole UniProt chain shown
For Y63F, the Tm was 65.1 °C, the “change of melting temperature, mutant - wild type (higher = more stable)” value (from here on “change of melting temperature, mutant”) was 0.2 °C and the “heat capacity change of unfolding” value was 1.1 kcal/mol/K. For the same variant, the “unfolding enthalpy (calorimetric)” value was 112 kcal/mol and the “unfolding enthalpy (van 't Hoff)” value was 118 kcal/mol. In the case of Y72F, the Tm is reported as 61.9 °C, the “change of melting temperature, mutant” value is reported as -3 °C and the “heat capacity change of unfolding” value is reported as 1.67 kcal/mol/K. The “unfolding enthalpy (calorimetric)” value was 110 kcal/mol and the “unfolding enthalpy (van 't Hoff)” value was 117 kcal/mol. In the case of Y38F, the Tm is reported as 63.4 °C, the “change of melting temperature, mutant” value is reported as -1.5 °C and the “heat capacity change of unfolding” value is reported as 1.35 kcal/mol/K. For the same variant, the “unfolding enthalpy (calorimetric)” value was 112 kcal/mol and the “unfolding enthalpy (van 't Hoff)” value was 120 kcal/mol. With Y142F the Tm was 63.8 °C and 64 °C, the “change of melting temperature, mutant” value was -1.1 °C and the “heat capacity change of unfolding” value was 1.46 kcal/mol/K and 1.53 kcal/mol/K. For the same variant, the “unfolding enthalpy (calorimetric)” value was 114 kcal/mol and 113 kcal/mol and the “unfolding enthalpy (van 't Hoff)” value was 119 kcal/mol and 118 kcal/mol. With Y56F the Tm was 64.3 °C, the “change of melting temperature, mutant” value was -0.6 °C and the “heat capacity change of unfolding” value was 1.29 kcal/mol/K. The “unfolding enthalpy (calorimetric)” value was 114 kcal/mol and the “unfolding enthalpy (van 't Hoff)” value was 117 kcal/mol. With Y81F the Tm was 64.2 °C, the “change of melting temperature, mutant” value was -0.7 °C and the “heat capacity change of unfolding” value was 1.53 kcal/mol/K. The “unfolding enthalpy (calorimetric)” value was 111 kcal/mol and the “unfolding enthalpy (van 't Hoff)” value was 117 kcal/mol.

Same assay, conditions: Homo sapiens; pH 2.71; Thermal; DSC; glycine 0.05 M; reversible: yes; structure 1LZ1; whole UniProt chain shown
In the case of Y63F, the Tm is reported as 64.9 °C, the “heat capacity change of unfolding” value is reported as 1.15 kcal/mol/K and the “unfolding enthalpy (calorimetric)” value is reported as 111 kcal/mol. For the same variant, the “unfolding enthalpy (van 't Hoff)” value was 117 kcal/mol. In the case of Y56F, the Tm is reported as 64.6 °C, the “heat capacity change of unfolding” value is reported as 1.03 kcal/mol/K and the “unfolding enthalpy (calorimetric)” value is reported as 113 kcal/mol. The “unfolding enthalpy (van 't Hoff)” value was 117 kcal/mol.

Same assay, conditions: Homo sapiens; pH 2.89; Thermal; DSC; glycine 0.05 M; reversible: yes; structure 1LZ1; whole UniProt chain shown
For Y63F, the Tm was 68.7 °C, the “heat capacity change of unfolding” value was 0.65 kcal/mol/K and the “unfolding enthalpy (calorimetric)” value was 116 kcal/mol. The “unfolding enthalpy (van 't Hoff)” value was 122 kcal/mol. With Y38F the Tm was 66.8 °C, the “heat capacity change of unfolding” value was 1.7 kcal/mol/K and the “unfolding enthalpy (calorimetric)” value was 115 kcal/mol. The “unfolding enthalpy (van 't Hoff)” value was 123 kcal/mol.

Same assay, conditions: Homo sapiens; pH 3.13; Thermal; DSC; glycine 0.05 M; reversible: yes; structure 1LZ1; whole UniProt chain shown
With Y63F the Tm was 72.5 °C, the “heat capacity change of unfolding” value was 1.63 kcal/mol/K and the “unfolding enthalpy (calorimetric)” value was 121 kcal/mol. The “unfolding enthalpy (van 't Hoff)” value was 127 kcal/mol. With Y72F the Tm was 69.1 °C, the “heat capacity change of unfolding” value was 1.12 kcal/mol/K and the “unfolding enthalpy (calorimetric)” value was 117 kcal/mol. The “unfolding enthalpy (van 't Hoff)” value was 124 kcal/mol.

Same assay, conditions: Homo sapiens; pH 2.69; Thermal; DSC; glycine 0.05 M; reversible: yes; structure 1LZ1; whole UniProt chain shown
With Y72F the Tm was 61.7 °C, the “heat capacity change of unfolding” value was 0.89 kcal/mol/K and the “unfolding enthalpy (calorimetric)” value was 105 kcal/mol. The “unfolding enthalpy (van 't Hoff)” value was 112 kcal/mol.

Same assay, conditions: Homo sapiens; pH 2.82; Thermal; DSC; glycine 0.05 M; reversible: yes; structure 1LZ1; whole UniProt chain shown
With Y72F the Tm was 64 °C, the “heat capacity change of unfolding” value was 1.91 kcal/mol/K and the “unfolding enthalpy (calorimetric)” value was 108 kcal/mol. For the same variant, the “unfolding enthalpy (van 't Hoff)” value was 114 kcal/mol.

Same assay, conditions: Homo sapiens; pH 2.99; Thermal; DSC; glycine 0.05 M; reversible: yes; structure 1LZ1; whole UniProt chain shown
With Y72F the Tm was 67 °C, the “heat capacity change of unfolding” value was 1.34 kcal/mol/K and the “unfolding enthalpy (calorimetric)” value was 114 kcal/mol. For the same variant, the “unfolding enthalpy (van 't Hoff)” value was 120 kcal/mol.

Same assay, conditions: Homo sapiens; pH 2.58; Thermal; DSC; glycine 0.05 M; reversible: yes; structure 1LZ1; whole UniProt chain shown
For Y38F, the Tm was 61.1 °C, the “heat capacity change of unfolding” value was 1.67 kcal/mol/K and the “unfolding enthalpy (calorimetric)” value was 106 kcal/mol. For the same variant, the “unfolding enthalpy (van 't Hoff)” value was 114 kcal/mol. For Y81F, the Tm was 61.9 °C, the “heat capacity change of unfolding” value was 1.53 kcal/mol/K and the “unfolding enthalpy (calorimetric)” value was 106 kcal/mol. The “unfolding enthalpy (van 't Hoff)” value was 112 kcal/mol.

Same assay, conditions: Homo sapiens; pH 3.18; Thermal; DSC; glycine 0.05 M; reversible: yes; structure 1LZ1; whole UniProt chain shown
In the case of Y38F, the Tm is reported as 72 °C, the “heat capacity change of unfolding” value is reported as 0.6 kcal/mol/K and the “unfolding enthalpy (calorimetric)” value is reported as 122 kcal/mol. The “unfolding enthalpy (van 't Hoff)” value was 129 kcal/mol.

Same assay, conditions: Homo sapiens; pH 2.53; Thermal; DSC; glycine 0.05 M; reversible: yes; structure 1LZ1; whole UniProt chain shown
With Y142F the Tm was 60.8 °C, the “heat capacity change of unfolding” value was 1.48 kcal/mol/K and the “unfolding enthalpy (calorimetric)” value was 108 kcal/mol. For the same variant, the “unfolding enthalpy (van 't Hoff)” value was 112 kcal/mol.

Same assay, conditions: Homo sapiens; pH 2.68; Thermal; DSC; glycine 0.05 M; reversible: yes; structure 1LZ1; whole UniProt chain shown
In the case of Y142F, the Tm is reported as 63.4 °C, the “heat capacity change of unfolding” value is reported as 1.08 kcal/mol/K and the “unfolding enthalpy (calorimetric)” value is reported as 112 kcal/mol. The “unfolding enthalpy (van 't Hoff)” value was 116 kcal/mol.

Same assay, conditions: Homo sapiens; pH 3.06; Thermal; DSC; glycine 0.05 M; reversible: yes; structure 1LZ1; whole UniProt chain shown
For Y142F, the Tm was 69.7 °C, the “heat capacity change of unfolding” value was 1.82 kcal/mol/K and the “unfolding enthalpy (calorimetric)” value was 121 kcal/mol. The “unfolding enthalpy (van 't Hoff)” value was 125 kcal/mol.

Same assay, conditions: Homo sapiens; pH 2.92; Thermal; DSC; glycine 0.05 M; reversible: yes; structure 1LZ1; whole UniProt chain shown
For Y56F, the Tm was 67.2 °C, the “heat capacity change of unfolding” value was 1.46 kcal/mol/K and the “unfolding enthalpy (calorimetric)” value was 117 kcal/mol. For the same variant, the “unfolding enthalpy (van 't Hoff)” value was 121 kcal/mol.

Same assay, conditions: Homo sapiens; pH 3.1; Thermal; DSC; glycine 0.05 M; reversible: yes; structure 1LZ1; whole UniProt chain shown
In the case of Y56F, the Tm is reported as 70.3 °C, the “heat capacity change of unfolding” value is reported as 0.96 kcal/mol/K and the “unfolding enthalpy (calorimetric)” value is reported as 121 kcal/mol. The “unfolding enthalpy (van 't Hoff)” value was 124 kcal/mol.

Same assay, conditions: Homo sapiens; pH 3.25; Thermal; DSC; glycine 0.05 M; reversible: Yes; structure 1LZ1; whole UniProt chain shown
With Y56F the Tm was 72.4 °C, the “heat capacity change of unfolding” value was 1.12 kcal/mol/K and the “unfolding enthalpy (calorimetric)” value was 123 kcal/mol. The “unfolding enthalpy (van 't Hoff)” value was 126 kcal/mol.

Same assay, conditions: Homo sapiens; pH 3; Thermal; DSC; glycine 0.05 M; reversible: yes; structure 1LZ1; whole UniProt chain shown
With Y81F the Tm was 69.5 °C, the “heat capacity change of unfolding” value was 0.6 kcal/mol/K and the “unfolding enthalpy (calorimetric)” value was 117 kcal/mol. For the same variant, the “unfolding enthalpy (van 't Hoff)” value was 122 kcal/mol.

Same assay, conditions: Homo sapiens; pH 3.17; Thermal; DSC; glycine 0.05 M; reversible: yes; structure 1LZ1; whole UniProt chain shown
In the case of Y81F, the Tm is reported as 72.7 °C, the “heat capacity change of unfolding” value is reported as 0.67 kcal/mol/K and the “unfolding enthalpy (calorimetric)” value is reported as 123 kcal/mol. For the same variant, the “unfolding enthalpy (van 't Hoff)” value was 129 kcal/mol.
